Reference: article PMC1802081

What was measured:
Assay in all cases: SPR; BIACORE 2000; biotinylated ligand on a streptavidin-modified CM5 chip (about 200 RU); receptor ectodomain as analyte at 1, 2, 3, 5, 10, 20 and 50 uM; HBS500 (10 mM HEPES pH 7.4, 500 mM NaCl, 3.4 mM EDTA, 0.005% P20); apparent KD from the dose dependence of equilibrium binding
[1] = target: BMP-2 A86P
[2] = target: BMP-2 L100K
[3] = target: BMP-2 N102D
[4] = target: BMP-2 S85R/A86P
[5] = target: BMP-2 S85R
[6] = target: BMP-2 variant L100K/N102D

rel. KD (against wildtype BMP-2 from E. coli with the same receptor) [1]: 1.5 fold | rel. KD (against wildtype BMP-2 from E. coli with the same receptor) [2]: 0.84 fold | rel. KD (against wildtype BMP-2 from E. coli with the same receptor) [3]: 3.6 fold | rel. KD (against wildtype BMP-2 from E. coli with the same receptor) [4]: 1.3 fold | rel. KD (against wildtype BMP-2 from E. coli with the same receptor) [5]: 0.85 fold | rel. KD (against wildtype BMP-2 from E. coli with the same receptor) [6]: 0.29 fold
Substance: ActR-II receptor ectodomain (from UniProt P27037 20-135)
